US20210145935A1

What was measured:
[1] = biological target: H3N2 pseudotyped lentiviral particles (H3 from A/Denmark/70/03, N2 from A/Texas/50/2012) (influenza A virus H3N2 A/Denmark/70/03; influenza A virus H3N2 A/Texas/50/2012); assay: cell-based or functional assay
[2] = biological target: H1N1 pseudotyped lentiviral particles (H1 and N1 from swine H1N1 A/California/04/09) (influenza A virus H1N1 A/California/04/09); assay: cell-based or functional assay

recombinant vaccinia virus complement control protein (VCP), sequence (P68638 20-263): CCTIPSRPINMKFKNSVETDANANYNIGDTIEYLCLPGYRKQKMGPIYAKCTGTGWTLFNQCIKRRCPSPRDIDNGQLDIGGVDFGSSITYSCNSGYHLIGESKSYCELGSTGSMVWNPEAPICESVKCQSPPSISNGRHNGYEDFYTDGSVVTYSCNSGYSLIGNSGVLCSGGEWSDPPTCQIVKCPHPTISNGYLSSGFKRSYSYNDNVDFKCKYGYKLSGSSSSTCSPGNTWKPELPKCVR

In the case of “recombinant vaccinia virus complement control protein (VCP) (from UniProt P68638 20-263)”, the luciferase reporter activity of transduced MDCK cells, 40 µg/ml protein [1] was 30 % increase and the luciferase reporter activity of transduced MDCK cells, 40 µg/ml protein [2] was 45 % reduction.
